Laboratory results from the supplement of paper PMC10567573.

B1: TSN (parent)
chain: AFVVYLETETLVTREAVTEILGIE
B2: MGC27345 (parent)
chain: KYMPHLCQDSSGEVSCQCQLHPPR

Variants of: B1
Assay: protein stability index of a GFP-peptide fusion (GPS, HEK-293T) (PSI 1-6); higher = more stable
Conditions: c terminus: a fixed tail appended
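Also: lentivirally expressed fusions sorted by FACS into six bins by GFP to DsRed ratio, PSI derived from sequencing read proportions per bin multiplied by bin number.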

Protein stability index: each site, then its substitutions
I23: N 3.34 | K 1.55 | L 2.26 | V 3.69 | Q 1.69 | A 1.8 | H 2.75 | D 1.42 | E 2.03 | T 1.79 | C 1.7 | Y 3.36 | F 2.36 | W 1.79
E24: W 1.53 | Q 3.13 | A 3.43 | D 2.34 | C 3.31 | G 2.84 | K 3.34 | V 2.23 | F 2.03 | I 3.19 | L 3.3 | R 2.27 | S 2.53
G22: R 3.49 | E 2.82 | D 3.2 | H 3.32 | N 2.33 | V 2.04 | S 1.86 | K 1.74 | P 2.86 | F 3.47 | Y 3.71

Variants of: B2
Assay: as above
Conditions: c terminus: a fixed tail appended

Protein stability index of substitutions, site by site:
C7: P 1.77 | R 3.06 | H 1.85 | Q 2.1 | D 2.11 | L 1.85 | A 1.47 | K 1.9 | W 1.75 | N 1.27 | E 1.77 | F 2.21 | Y 1.63 | S 1.47 | I 1.79 | M 2.11 | G 3.13 | T 1.53
Y2: A 1.97 | M 2.52 | E 1.66 | H 2.51 | I 3.1 | Q 1.78 | T 2.3 | D 2.4 | G 2.87 | S 2.33 | P 1.79 | R 2.16 | V 2.23 | N 3.13 | W 2.64 | F 1.86 | C 2.44
P4: Q 1.99 | T 1.98 | R 1.9 | I 1.49 | V 2.81 | L 1.7 | W 1.67 | F 1.75 | E 1.79 | N 1.78 | H 1.69 | A 2.26 | S 1.71 | K 1.58 | M 2.54 | Y 2.15 | C 3.23 | G 1.62 | D 2.18
M3: C 2.94 | A 2.24 | E 2.25 | H 2.28 | P 2.84 | D 2.34 | I 2.01 | G 2.1 | K 1.96 | V 2.32 | W 1.99 | T 1.96 | R 2.46 | L 2.67 | N 2.55 | S 2.27 | Y 2.22 | Q 1.05 | F 1.99
L6: K 2.14 | Y 1.96 | C 2.39 | E 2.71 | T 2.34 | G 2.66 | W 1.53 | F 1.59 | Q 2.47 | A 1.73 | N 1.79 | R 2.05 | V 2.65 | D 2.64 | P 1.57 | S 2.98 | H 2.1 | I 2.23 | M 1.79
H5: F 1.34 | R 2.57 | N 1.64 | A 1.8 | M 2.15 | E 2.3 | P 2.27 | D 1.66 | W 3.69 | C 2.92 | V 2.22 | Q 2.6 | Y 1.98 | G 1.45 | S 1.89 | T 2.21 | I 1.49
Q8: A 2.65 | C 2.53
K1: Q 2 | P 2.16 | M 3.73 | H 2.13 | N 1.73 | R 2.24 | C 3.03 | D 2.56 | S 2.65 | A 1.82 | V 2.43 | I 1.98 | T 1.9 | F 1.6 | Y 1.92 | L 2.48 | G 2.25 | E 2.06
